{"source": "patent US20180202002", "proteins": {"B1": {"name": "caspase 3 (protein)", "chain": "MENNKTSVDSKSINNFEVKTIHGSKSVDSGIYLDSSYKMDYPEMGICIIINNKNFHKSTGMSSRSGTDVDAANLRETFMGLKYQVRNKNDLTREDILELMDSVSKEDHSKRSSFVCVILSHGDEGVIYGTNGPVELKKLTSFFRGDYCRSLTGKPKLFIIQACRGTELDCGIETDSGTDEEMACQKIPVEADFLYAYSTAPGYYSWRNSKDGSWFIQSLCSMLKLYAHKLEFMHILTRVNRKVATEFESFSLDSTFHAKKQIPCIVSMLTKELYFYH"}}, "molecular_target": "T1, N-terminal tagged Cyclin D1 (FLAG-HA-Cyclin D1, tag at the N-terminus), P25322", "T1 chain": "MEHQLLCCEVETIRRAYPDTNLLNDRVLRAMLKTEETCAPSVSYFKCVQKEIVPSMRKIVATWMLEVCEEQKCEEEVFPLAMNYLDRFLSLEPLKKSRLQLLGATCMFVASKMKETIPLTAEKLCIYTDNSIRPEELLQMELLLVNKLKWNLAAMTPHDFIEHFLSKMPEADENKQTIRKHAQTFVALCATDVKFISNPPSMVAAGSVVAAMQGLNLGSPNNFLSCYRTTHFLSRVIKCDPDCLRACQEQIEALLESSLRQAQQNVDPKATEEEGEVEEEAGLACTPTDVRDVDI", "data": [{"protein": "B1", "values": [{"measurement": "levels of cleaved PARP (Western blot) after treatment with 5-FU", "result": "The levels of cleaved PARP increase in RAS or ErbB2 cancer cells after treatment with 5-FU, although limited by the Cyclin D1"}]}]}
